Assays:
FGFR1 = FGFR1 (UniProt P11362); test: phosphorylation enrichment, bacterial display (enrichment ratio); higher = better substrate or ligand; peptides without Tyr show the background
c-Abl (mouse) = test: as above
FGFR3 = FGFR3 (UniProt P22607); test: as above
EPHB2 = EPHB2 (UniProt P29323); test: as above
Fer (mouse) = test: as above
c-Src = test: as above
AncSZ = test: as above
EPHB1 = EPHB1 (UniProt P54762); test: as above
Hck = Hck (UniProt P08631); test: as above
MERTK = MERTK (UniProt Q12866); test: as above
Fyn = Fyn (UniProt P06241); test: as above
Fes = Fes (UniProt P07332); test: as above
Jak2 = Jak2 (UniProt O60674); test: as above
SHP2-C SH2 = test: SH2 binding enrichment of the phosphorylated peptide, bacterial display (enrichment ratio); higher = better substrate or ligand; peptides without Tyr show the background
Grb2 SH2 = Grb2 SH2 (UniProt P62993); test: as above
c-Src SH2 = test: as above
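Throughout, for SH2 binding enrichment of the phosphorylated peptide, bacterial display: peptide library displayed on the E. coli surface as eCPX fusions, selected cells deep-sequenced, score is each peptide's frequency after selection divided by its frequency in the input.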
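Throughout, for phosphorylation enrichment, bacterial display: 11-residue human phosphosite peptides and single-mutation variants displayed on the E. coli surface, counted by deep sequencing, each peptide's frequency after selection divided by its frequency in the unselected input library; frequency after pTyr selection over input frequency; kinase dosed for 20-30% of maximal phosphorylation in three min.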

EPHB2, sequence (P29323 whole entry, looked up): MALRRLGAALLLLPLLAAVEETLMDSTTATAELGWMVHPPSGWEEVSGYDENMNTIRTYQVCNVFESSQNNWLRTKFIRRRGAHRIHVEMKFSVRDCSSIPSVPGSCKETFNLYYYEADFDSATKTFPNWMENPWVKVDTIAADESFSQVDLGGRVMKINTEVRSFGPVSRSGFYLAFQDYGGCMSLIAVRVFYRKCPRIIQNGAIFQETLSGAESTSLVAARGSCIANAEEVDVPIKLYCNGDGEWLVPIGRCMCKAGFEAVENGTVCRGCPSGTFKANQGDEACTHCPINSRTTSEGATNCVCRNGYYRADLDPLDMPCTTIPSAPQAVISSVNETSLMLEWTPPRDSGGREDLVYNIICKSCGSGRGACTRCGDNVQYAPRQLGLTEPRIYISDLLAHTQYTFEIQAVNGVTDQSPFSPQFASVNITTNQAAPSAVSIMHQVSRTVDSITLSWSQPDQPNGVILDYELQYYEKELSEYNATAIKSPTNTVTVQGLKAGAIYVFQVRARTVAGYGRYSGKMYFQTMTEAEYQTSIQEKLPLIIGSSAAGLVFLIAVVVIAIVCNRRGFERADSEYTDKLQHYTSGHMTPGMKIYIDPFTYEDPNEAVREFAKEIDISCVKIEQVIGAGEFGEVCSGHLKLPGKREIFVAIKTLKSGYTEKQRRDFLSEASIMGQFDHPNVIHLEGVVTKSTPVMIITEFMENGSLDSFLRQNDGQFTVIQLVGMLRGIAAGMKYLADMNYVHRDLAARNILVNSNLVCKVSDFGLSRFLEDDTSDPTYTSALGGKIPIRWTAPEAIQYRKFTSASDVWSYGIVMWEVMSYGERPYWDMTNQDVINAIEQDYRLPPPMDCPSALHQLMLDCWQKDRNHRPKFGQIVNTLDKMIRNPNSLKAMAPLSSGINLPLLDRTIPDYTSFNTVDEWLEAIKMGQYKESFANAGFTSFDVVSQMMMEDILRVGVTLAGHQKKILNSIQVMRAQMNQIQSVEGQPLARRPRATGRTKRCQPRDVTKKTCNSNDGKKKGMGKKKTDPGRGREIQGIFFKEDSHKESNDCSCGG
MERTK, sequence (Q12866 whole entry, looked up): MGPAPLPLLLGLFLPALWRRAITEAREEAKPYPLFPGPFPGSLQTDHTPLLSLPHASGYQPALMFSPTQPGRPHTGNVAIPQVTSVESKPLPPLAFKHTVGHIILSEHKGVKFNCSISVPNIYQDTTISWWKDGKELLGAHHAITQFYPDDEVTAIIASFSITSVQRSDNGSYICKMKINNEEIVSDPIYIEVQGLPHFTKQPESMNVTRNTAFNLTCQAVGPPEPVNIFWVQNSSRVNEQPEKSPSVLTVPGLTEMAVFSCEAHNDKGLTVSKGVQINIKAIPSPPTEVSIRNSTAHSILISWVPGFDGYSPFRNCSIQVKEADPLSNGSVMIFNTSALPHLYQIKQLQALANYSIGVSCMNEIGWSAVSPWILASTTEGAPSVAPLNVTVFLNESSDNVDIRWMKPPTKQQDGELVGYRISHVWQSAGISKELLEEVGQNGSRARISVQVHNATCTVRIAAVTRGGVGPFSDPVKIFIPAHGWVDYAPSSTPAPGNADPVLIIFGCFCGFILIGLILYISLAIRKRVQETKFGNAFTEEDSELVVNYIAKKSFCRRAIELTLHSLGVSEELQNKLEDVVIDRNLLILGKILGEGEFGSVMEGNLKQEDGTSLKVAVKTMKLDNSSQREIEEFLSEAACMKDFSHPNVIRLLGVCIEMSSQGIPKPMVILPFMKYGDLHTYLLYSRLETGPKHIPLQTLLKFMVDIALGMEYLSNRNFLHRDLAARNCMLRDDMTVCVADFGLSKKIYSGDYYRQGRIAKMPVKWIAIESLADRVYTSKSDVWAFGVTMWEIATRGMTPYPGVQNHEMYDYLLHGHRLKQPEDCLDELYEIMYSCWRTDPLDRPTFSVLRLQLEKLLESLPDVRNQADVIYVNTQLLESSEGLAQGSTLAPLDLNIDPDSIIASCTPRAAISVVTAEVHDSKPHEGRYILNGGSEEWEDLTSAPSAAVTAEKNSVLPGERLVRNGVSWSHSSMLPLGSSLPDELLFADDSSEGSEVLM
FGFR1, sequence (P11362 whole entry, looked up): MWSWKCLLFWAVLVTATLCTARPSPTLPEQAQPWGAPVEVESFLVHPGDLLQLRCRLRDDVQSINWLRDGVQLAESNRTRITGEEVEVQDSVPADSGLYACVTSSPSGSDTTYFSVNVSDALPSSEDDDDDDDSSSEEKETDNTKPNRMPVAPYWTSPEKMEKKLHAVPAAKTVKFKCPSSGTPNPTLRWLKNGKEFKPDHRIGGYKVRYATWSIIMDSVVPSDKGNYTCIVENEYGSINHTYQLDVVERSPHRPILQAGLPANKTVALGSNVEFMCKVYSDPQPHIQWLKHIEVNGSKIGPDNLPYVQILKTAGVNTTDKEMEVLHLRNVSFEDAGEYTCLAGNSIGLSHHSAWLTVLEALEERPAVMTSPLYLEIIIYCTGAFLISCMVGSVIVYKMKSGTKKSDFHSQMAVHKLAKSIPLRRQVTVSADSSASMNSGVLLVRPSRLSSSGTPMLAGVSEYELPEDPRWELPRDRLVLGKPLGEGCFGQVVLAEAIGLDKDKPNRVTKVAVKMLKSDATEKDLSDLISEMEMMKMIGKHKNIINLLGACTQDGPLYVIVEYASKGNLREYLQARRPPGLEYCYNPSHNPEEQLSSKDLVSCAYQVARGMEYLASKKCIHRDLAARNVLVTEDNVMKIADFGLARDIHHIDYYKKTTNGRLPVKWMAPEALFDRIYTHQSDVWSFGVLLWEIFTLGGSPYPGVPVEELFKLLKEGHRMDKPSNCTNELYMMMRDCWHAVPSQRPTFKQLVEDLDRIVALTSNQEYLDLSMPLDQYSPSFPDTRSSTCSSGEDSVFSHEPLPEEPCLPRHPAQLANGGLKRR
Fyn, sequence (P06241 whole entry, looked up): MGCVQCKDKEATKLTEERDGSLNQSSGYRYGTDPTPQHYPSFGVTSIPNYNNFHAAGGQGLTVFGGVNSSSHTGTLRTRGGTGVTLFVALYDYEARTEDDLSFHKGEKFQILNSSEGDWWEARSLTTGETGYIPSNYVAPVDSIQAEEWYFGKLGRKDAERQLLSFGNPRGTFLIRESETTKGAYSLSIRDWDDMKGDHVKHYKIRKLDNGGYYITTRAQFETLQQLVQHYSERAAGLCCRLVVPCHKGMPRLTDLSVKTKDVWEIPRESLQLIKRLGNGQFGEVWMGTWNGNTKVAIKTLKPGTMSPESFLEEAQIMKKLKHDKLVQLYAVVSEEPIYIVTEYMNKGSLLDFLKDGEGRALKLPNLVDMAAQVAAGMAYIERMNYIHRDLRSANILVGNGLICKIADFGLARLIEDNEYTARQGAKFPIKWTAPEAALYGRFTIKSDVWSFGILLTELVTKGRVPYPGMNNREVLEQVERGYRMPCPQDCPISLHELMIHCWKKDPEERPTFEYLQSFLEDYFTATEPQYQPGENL
Jak2, sequence (O60674 whole entry, looked up): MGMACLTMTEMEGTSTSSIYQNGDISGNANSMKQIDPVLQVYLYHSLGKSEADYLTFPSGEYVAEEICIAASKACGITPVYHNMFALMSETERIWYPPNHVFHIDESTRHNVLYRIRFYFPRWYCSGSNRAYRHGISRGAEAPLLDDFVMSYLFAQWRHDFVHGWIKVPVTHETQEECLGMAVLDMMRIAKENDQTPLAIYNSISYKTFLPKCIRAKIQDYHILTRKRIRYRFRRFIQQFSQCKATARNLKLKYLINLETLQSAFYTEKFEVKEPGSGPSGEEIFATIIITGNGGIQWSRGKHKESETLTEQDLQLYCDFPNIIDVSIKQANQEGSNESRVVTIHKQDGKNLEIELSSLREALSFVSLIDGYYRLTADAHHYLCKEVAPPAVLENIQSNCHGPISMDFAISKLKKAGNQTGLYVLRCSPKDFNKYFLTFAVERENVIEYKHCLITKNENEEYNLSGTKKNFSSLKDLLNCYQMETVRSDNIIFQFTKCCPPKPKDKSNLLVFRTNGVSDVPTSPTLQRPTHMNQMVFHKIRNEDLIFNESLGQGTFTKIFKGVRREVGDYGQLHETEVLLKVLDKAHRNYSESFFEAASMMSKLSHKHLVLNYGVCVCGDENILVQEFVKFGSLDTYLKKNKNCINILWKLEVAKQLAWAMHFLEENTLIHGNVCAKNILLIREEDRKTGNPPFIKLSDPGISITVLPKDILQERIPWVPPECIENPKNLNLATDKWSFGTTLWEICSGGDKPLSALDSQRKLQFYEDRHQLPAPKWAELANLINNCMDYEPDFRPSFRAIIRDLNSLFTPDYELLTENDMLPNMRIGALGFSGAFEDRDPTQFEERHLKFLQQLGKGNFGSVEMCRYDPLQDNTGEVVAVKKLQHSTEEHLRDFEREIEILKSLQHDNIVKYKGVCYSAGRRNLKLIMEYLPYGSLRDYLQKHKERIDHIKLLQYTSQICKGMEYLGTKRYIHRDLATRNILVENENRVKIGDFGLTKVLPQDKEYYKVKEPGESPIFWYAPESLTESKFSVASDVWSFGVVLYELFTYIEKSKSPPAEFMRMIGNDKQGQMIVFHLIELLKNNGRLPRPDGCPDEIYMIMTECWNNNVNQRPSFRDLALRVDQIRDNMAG
Hck, sequence (P08631 whole entry, looked up): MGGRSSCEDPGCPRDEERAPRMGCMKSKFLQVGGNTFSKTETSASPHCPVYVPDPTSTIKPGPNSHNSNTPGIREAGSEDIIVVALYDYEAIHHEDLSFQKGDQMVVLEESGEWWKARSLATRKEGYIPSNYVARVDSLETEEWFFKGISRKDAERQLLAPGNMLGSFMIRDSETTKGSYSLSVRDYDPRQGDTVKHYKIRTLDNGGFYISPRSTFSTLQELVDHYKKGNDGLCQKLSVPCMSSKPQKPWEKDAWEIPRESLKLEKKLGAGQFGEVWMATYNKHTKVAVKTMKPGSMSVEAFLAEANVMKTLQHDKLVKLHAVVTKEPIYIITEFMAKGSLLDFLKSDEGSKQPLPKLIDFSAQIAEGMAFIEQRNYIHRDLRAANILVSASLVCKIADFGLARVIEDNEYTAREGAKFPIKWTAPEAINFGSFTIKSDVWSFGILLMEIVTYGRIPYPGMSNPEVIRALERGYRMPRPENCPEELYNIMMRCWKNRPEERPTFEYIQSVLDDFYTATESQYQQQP

Sequence | phosphorylation enrichment (FGFR1) | phosphorylation enrichment (c-Abl (mouse)) | phosphorylation enrichment (FGFR3) | phosphorylation enrichment (EPHB2) | phosphorylation enrichment (Fer (mouse)) | phosphorylation enrichment (c-Src) | phosphorylation enrichment (AncSZ) | phosphorylation enrichment (EPHB1) | phosphorylation enrichment (Hck) | phosphorylation enrichment (MERTK) | phosphorylation enrichment (Fyn) | phosphorylation enrichment (Fes) | phosphorylation enrichment (Jak2) | SH2 binding enrichment (SHP2-C SH2) | SH2 binding enrichment (Grb2 SH2) | SH2 binding enrichment (c-Src SH2)
NKFTTYLPWLP [C9orf24_Y126_R129W_YF] | 1.43 | 1.6 | 1.25 | 6.61 | 6.84 | 4.54 | 1.04 | 3.63 | 8.27 | 1.4 | 5.73 | 1.06 | 1.75 | 0.89 | 1.19 | 0.815
KKKKQYKDKFL [CASK_Y708_YF] | 0.572 | 0.699 | 0.55 | 0.634 | 0.502 | 0.739 | 0.893 | 0.687 | 0.589 | 0.782 | 0.701 | 0.642 | 0.724 | 0.408 | 0.683 | 0.453
GDYLSYREFHL [ERBIN_Y1107_S1112L] | 5.4 | 15.7 | 3.96 | 22.7 | 0.79 | 2.46 | 1.8 | 16.4 | 2.45 | 0.478 | 3.1 | 0.809 | 1.53 | 0.689 | 0.84 | 0.491
GACGGYCSVLG [RAB18_Y202] | 0.435 | 0.461 | 0.401 | 0.352 | 0.441 | 0.509 | 0.533 | 0.358 | 0.392 | 0.525 | 0.473 | 0.77 | 0.522 | 2.48 | 0.875 | 8.18
STSYDYCRVPM [BST2_Y8] | 7.46 | 1.11 | 5.34 | 10.3 | 4.37 | 1.13 | 3.77 | 11.7 | 2.22 | 3.24 | 0.711 | 0.892 | 2.55 | 0.937 | 0.858 | 1.54
GQAPGYSFTAA [CYCS_Y47_YF] | 0.422 | 0.504 | 0.428 | 0.427 | 0.364 | 0.503 | 0.502 | 0.354 | 0.416 | 0.389 | 0.393 | 0.509 | 0.471 | 0.8 | 0.653 | 0.577
VVIMLYGVDSR [PKD1_Y3143_G3139V] | 0.545 | 1.04 | 0.924 | 0.72 | 0.682 | 0.524 | 1.29 | 0.879 | 0.594 | 0.399 | 0.592 | 1.57 | 1.35 | 0.826 | 0.981 | 0.645
SENPKYPEVGD [TMEM43_Y233] | 0.6 | 0.822 | 0.734 | 0.561 | 0.424 | 0.584 | 1.01 | 0.459 | 0.536 | 0.522 | 0.616 | 1.2 | 0.891 | 0.594 | 1.27 | 0.482
